# Assay results published in article PMC11266426, “Membrane remodeling by FAM92A1 during brain development regulates neuronal morphology, synaptic function, and cognition” (Nature Communications, 2024).
# B1: Human FAM92A1 BAR domain (residues 1-219), wild type (domain or fragment, UniProt A1XBS5 1-219, looked up)
# chain: MMRRTLENRNAQTKQLQTAVSNVEKHFGELCQIFAAYVRKTARLRDKADLLVNEINAYAATETPHLKLGLMNFADEFAKLQDYRQAEVERLEAKVVEPLKTYGTIVKMKRDDLKATLTARNREAKQLTQLERTRQRNPSDRHVISQAETELQRAAMDASRTSRHLEETINNFERQKMKDIKTIFSEFITIEMLFHGKALEVYTAAYQNIQNIDEDEDLE
# notes: FAM92A1 (CIBAR1), human, residues 1-219 cloned into the pHAT vector between SpeI and NsiI; residues 2-211 form the BAR domain in the crystal structure; Homodimer by crystal structure and SEC-MALS; The pHAT vector probably adds the His tag at the N-terminus (surmise); also called FAM92A1 N-terminal region; WT; source: E. coli BL21 (DE3), purified (Ni-NTA, gel filtration on Superdex 75)
# Target: the molecule itself
# Experiment: SEC-MALS; purified proteins on a Superdex 200 10/300 column at 4 °C, flow 0.5 mL/min; MiniDAWN light scattering and Optilab dRI detectors
protein,measurement,value
B1,stoichiometry N,2
